No end group written: not given here. *: point of attachment. Biotin = O=C1N[C@H]2[C@H](CS[C@H]2CCCCC(=O)*)N1

Results on 51 sequences are retold here after patent US20080119412A1, “Polypeptides for Modulating Binding of Trp Channel Proteins and Trp- Associated Proteins” (NoNO Inc., priority 2003, published 2008).

Assay [1] has as its target T1, ZO-1 d2 (Homo sapiens, UniProt Q07157, DEL264-264).
T1 construct: made in house; host or cells: E. coli (DH5alpha, BL21 or JM109)
T1 sequence (Q07157 with tags, fused parts or gaps DEL264-264): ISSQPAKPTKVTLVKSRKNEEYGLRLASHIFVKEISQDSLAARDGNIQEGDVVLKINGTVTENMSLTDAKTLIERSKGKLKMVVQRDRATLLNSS
The experiment in a line: G assay, peptide binding to GST-PDZ fusion (Table 11). Particulars: Table 11, titrations or binding assays.
Protocol: (§1) The binding of labeled PL peptide (e.g., as listed in TABLE 2 and TABLE 4) to this surface is then measured. In a preferred embodiment, the assay is carried out as follows:
(§2) (1) A PDZ-domain polypeptide is bound to a surface, e.g. a protein binding surface. In a preferred embodiment, a GST/PDZ fusion protein containing one or more PDZ domains is bound to a polystyrene 96-well plate. […] In one embodiment, the GST/PDZ fusion protein is bound via an anti-GST antibody that is coated onto the 96-well plate. Adequate binding to the plate can be achieved when:
(§3) (2) Biotinylated PL peptides are allowed to react with the surface by addition of 50 μl per well of 20 μM solution of the biotinylated peptide in PBS/BSA for 10 minutes at 4° C., followed by an additional 20 minute incubation at 25° C. The plate is washed 3 times with ice cold PBS.
(§4) (3) The binding of the biotinylated peptide to the GST/PDZ fusion protein surface can be detected using a variety of methods and detectors known to one of skill in the art. In one embodiment, 100 μl per well of 0.5 μg/ml streptavidin-horseradish peroxidase (HRP) conjugate dissolved in BSA/PBS is added and allowed to react for 20 minutes at 4° C. The plate is then washed 5 times with 50 mM Tris pH 8.0 containing 0.2% Tween 20, and developed by addition of 100 μl per well of HRP-substrate solution (TMB, Dako) for 20 minutes at room temperature (RT). The reaction of the HRP and its substrate is terminated by addition of 100 μl per well of 1 M sulfuric acid, and the optical density (O.D.) of each well of the plate is read at 450 um.
(§5) (4) Specific binding of a PL peptide and a PDZ domain polypeptide is determined by comparing the signal from the well(s) in which the PL peptide and PDZ domain polypeptide are combined, with the background signal(s). […] Typically a specific or selective reaction will be at least twice background signal, more typically more than 5 times background, and most typically 10 or more times the background signal. […] Correspondingly, a statistical test (e.g. a T-test) comparing repeated measurements of the signal with -repeated measurements of the background will result in a p-value <0.05, more typically a p-value <0.01, and most typically a p-value <0.001 or less. As noted, in an embodiment of the G assay, the signal from binding of a given PL peptide to immobilized (surface bound) GST polypeptide alone is one suitable negative control (sometimes referred to as B1). Because all measurement are done in multiples (i.e. at least duplicate) the arithmetic mean (or, equivalently, average.) of several measurements is used in determining the binding, and the standard error of the mean is used in determining the probable error in the measurement of the binding. The standard error of the mean of N measurements equals the square root of the following: the sum of the squares of the difference between each measurement and the mean, divided by the product of (N) and (N−1). Thus, in one embodiment, specific binding of the PDZ protein to the platebound peptide is determined by comparing the mean signal (“mean S”) and standard error of the signal (“SE”) for a particular PL-PDZ combination with the mean B1.

In assay [2] the target is T2, INADL d3 (Homo sapiens, UniProt Q8NI35).
T2 construct: made in house; host or cells: E. coli (DH5alpha, BL21 or JM109)
T2 sequence (Q8NI35 with tags, fused parts or gaps): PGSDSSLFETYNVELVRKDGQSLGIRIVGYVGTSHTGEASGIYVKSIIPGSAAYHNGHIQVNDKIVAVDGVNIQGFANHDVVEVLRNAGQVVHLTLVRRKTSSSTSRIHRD
The assay is described as above. Conditions: Table 11, titrations or binding assays.
Protocol: as §1, §2, §3, §4, §5

Turning to “YGRKKRRQRRRARGDRKRIV (Biotin-YGRKKRRQRRRARGDRKRIV)”, the PDZ domain bound entry in assay [1] is reported as “ZO-1 D2”.
With PGQPPKVKSEFNSYSLTGYV, the PDZ domain bound entry in assay [2] is listed as “INADL D3”.
With FHSKTAGANTTDKELEVLSL, the PDZ domain bound result in assay [2] is listed as “INADL D3”; in assay [1], “ZO-1 D2”.
As for “YGRKKRRQRRRAVAATYSNL (Biotin-YGRKKRRQRRRAVAATYSNL)”, the PDZ domain bound result in assay [1] is recorded as “ZO-1 D2”.
For the sequence “VDPNSPAAKKKYVSYNNLVI (Biotin-VDPNSPAAKKKYVSYNNLVI)”, the values for the PDZ domain bound result in assay [2] and in assay [1] were “INADL D3” and “ZO-1 D2”, respectively.
For “YSATYSELEDPGEMSPPIDL (Biotin-YSATYSELEDPGEMSPPIDL)”, the PDZ domain bound result in assay [2] is recorded as “INADL D3”.
“YGRKKRRQRRRARGDRKRWL (Biotin-YGRKKRRQRRRARGDRKRWL)”: the PDZ domain bound entry in assay [1] is listed as “ZO-1 D2”.
On to STDNLVRPFMDTLASHQLYI, for which the PDZ domain bound result in assay [2] was “INADL D3”.
In the case of “NYKLNTDHAGSNDNIALLVQ (Biotin-NYKLNTDHAGSNDNIALLVQ)”, in assay [1], the PDZ domain bound result is “ZO-1 D2”.
On to YGRKKRRQRRREYLGLDVPV, for which the figures for the PDZ domain bound result in assay [2] and in assay [1] were “INADL D3” and “ZO-1 D2”, respectively.
On to “YGRKKRRQRRRARGDRKRWA (Biotin-YGRKKRRQRRRARGDRKRWA)”, for which, in assay [1], the PDZ domain bound result is “ZO-1 D2”.
Regarding HDFRRAFKKILARGDRKRIV, the PDZ domain bound entry in assay [2] is “INADL D3”; in assay [1] it was “ZO-1 D2”.
As for LQFHRGSRAQSFLQTETSVI, in assay [2], the PDZ domain bound result was “INADL D3”.
ILNSIQVMRAQMNQIQSVEV: the PDZ domain bound entry in assay [2] is “INADL D3”; in assay [1], “ZO-1 D2”.
For “HAMNAAPRAMENAPALRTSH (Biotin-HAMNAAPRAMENAPALRTSH)”, the PDZ domain bound result in assay [2] was “INADL D3”.
For “YGRKKRRQRRRARSDRGIWA (Biotin-YGRKKRRQRRRARSDRGIWA)”, the PDZ domain bound result in assay [1] is on record as “ZO-1 D2”.
With SSSRRDSSWSETSEASYSGL, the PDZ domain bound result in assay [1] is on record as “ZO-1 D2”.
With KHSRKSSSYSSSSTTVKTSY, the figures for the PDZ domain bound entry in assay [2] and in assay [1] were “INADL D3” and “ZO-1 D2”, respectively.
Take “VPSDNIDSQGRNASTNDSLL (Biotin-VPSDNIDSQGRNASTNDSLL)”: the PDZ domain bound entry in assay [2] is on record as “INADL D3”.
“LNSCSNRRVYKKMPSIESDV (Biotin-LNSCSNRRVYKKMPSIESDV)”: the PDZ domain bound entry was “INADL D3” in assay [2] and “ZO-I D2” in assay [1].
As to YGRKKRRQRRRNDNIALLVQ, the PDZ domain bound entry in assay [1] is reported as “ZO-1 D2”.
With “YVYSRVKNLNSSEGVPDLLV (Biotin-YVYSRVKNLNSSEGVPDLLV)”, the PDZ domain bound entry in assay [1] is “ZO-1 D2”.
In the case of “YGRKKRRQRRRKLSSIESDV (Biotin-YGRKKRRQRRRKLSSIESDV)”, the PDZ domain bound entry in assay [1] is reported as “ZO-1 D2”.
Consider “VHKVRNKFKAKCSLCRLYII (Biotin-VHKVRNKFKAKCSLCRLYII; cysteine pairing not given here)”, for which the PDZ domain bound entry in assay [2] is “INADL D3”; in assay [1] it was “ZO-1 D2”.
Turning to SLIGPVQKEYQRELGKLSSP, the PDZ domain bound result in assay [2] is given as “INADL D3”.
In the case of TQGFPGPATWRRISSLESEV, the PDZ domain bound entry in assay [2] is recorded as “INADL D3”.
As to DFRPSFKHILFRRARRGFRQ, the values for the PDZ domain bound result in assay [2] and in assay [1] were “INADL D3” and “ZO-1 D2”, respectively.
Turning to TEGNESSEATSPVNAIYSLA, the PDZ domain bound entry in assay [1] is “ZO-1 D2”.
Consider RSGATIPLVGQDIIDLQTEV, for which the PDZ domain bound result in assay [2] was “INADL D3”.
As for RRRRRRRGNTTDKELEVLSL, the PDZ domain bound entry in assay [1] is listed as “ZO-1 D2”.
As for “YGRKKRRQRRRQDEEEGIWA (Biotin-YGRKKRRQRRRQDEEEGIWA)”, the PDZ domain bound entry in assay [1] is “ZO-1 D2”.
Regarding SSKSKSSEESQTFFGLYKL, the PDZ domain bound result in assay [2] is listed as “INADL D3”; in assay [1], “ZO-1 D2”.
Take ELLQFCRTPNPALKNGQYWV: the PDZ domain bound result in assay [2] is listed as “INADL D3”; in assay [1], “ZO-1 D2”.
With PSSRASSRASSRPRPDDLEI, the PDZ domain bound result in assay [1] is recorded as “ZO-1 D2”.
In the case of “YGRKKRRQRRRAVAAASANL (Biotin-YGRKKRRQRRRAVAAASANL)”, in assay [1], the PDZ domain bound entry is on record as “ZO-1 D2”.
Regarding KKKKQPGNSTKESESTNSVRLML, the PDZ domain bound entry in assay [2] is “INADL D3”; in assay [1], “ZO-1 D2”.
For QDFRRAFRRILARPWTQTAW, the PDZ domain bound result is on record as “INADL D3” in assay [2] and “ZO-1 D2” in assay [1].
As to YGRKKRRQRRRDKELEVLSL, in assay [1], the PDZ domain bound entry is given as “ZO-1 D2”.
RRRRRRRGTNPAVAATSANL: the PDZ domain bound entry in assay [1] is “ZO-1 D2”.
Turning to LASKSAEEGKQIPDSLSTDL, the PDZ domain bound entry in assay [2] is recorded as “INADL D3”.
For the sequence YGRKKRRQRRRGASADSTQA, in assay [1], the PDZ domain bound result is given as “ZO-1 D2”.
For YGRKKRRQRRRAVAATSANL, the figures for the PDZ domain bound result in assay [2] and in assay [1] were “INADL D3” and “ZO-1 D2”, respectively.
As for “HSCCNRARQERLQRRRETQV (Biotin-HSCCNRARQERLQRRRETQV; cysteine pairing not given here)”, the values for the PDZ domain bound result in assay [2] and in assay [1] were “INADL D3” and “ZO-1 D2”, respectively.
In the same order, the values of HHLVAQRDIRQFQLQHWLAI are “INADL D3” and “ZO-1 D2”.
In the case of “GRWTGRAMSAWKPTRRETEV (Biotin-GRWTGRAMSAWKPTRRETEV)”, the PDZ domain bound entry in assay [2] was “INADL D3”.
With PIPAGGCTFSGIFPTLTSPL, the PDZ domain bound entry in assay [2] is “INADL D3”.
Turning to RELVDRGEVRQFTLRHWLKV, the results for the PDZ domain bound entry in assay [2] and in assay [1] were “INADL D3” and “ZO-I D2”, respectively.
Turning to YGRKKRRQRRRSEGVPDLLV, the PDZ domain bound entry in assay [1] was “ZO-1 D2”.
Consider LAVLAYSITLVMLWSIWQYA, for which the PDZ domain bound entry in assay [2] is recorded as “INADL D3”; in assay [1], “ZO-1 D2”.
For “TTNNNPNSAVNIKKIFTDV (Biotin-TTNNNPNSAVNIKKIFTDV)”, in that order: “INADL D3” and “ZO-1 D2”.
Consider “ENLELPVNPSSVVSERISSV (Biotin-ENLELPVNPSSVVSERISSV)”, for which, in assay [2], the PDZ domain bound entry is listed as “INADL D3”.
